Results as given in patent publication US20240342199.

What was measured:
[1] = biological target: Recombinant CypD Ser123→Ala mutant (UniProt P30405)
[2] = biological target: Recombinant GST-CypD (wild type) (UniProt P30405)
Sequence of Recombinant GST-CypD (wild type) (P30405 whole entry): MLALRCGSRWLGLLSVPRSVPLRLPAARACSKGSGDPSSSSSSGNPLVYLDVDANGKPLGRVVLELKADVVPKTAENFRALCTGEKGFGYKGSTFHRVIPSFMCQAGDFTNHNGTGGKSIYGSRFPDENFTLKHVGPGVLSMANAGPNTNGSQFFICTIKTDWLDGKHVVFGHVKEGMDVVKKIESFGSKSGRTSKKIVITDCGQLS

Sequence of Recombinant CypD Ser123→Ala mutant (P30405 whole entry, looked up, change not shown): as the sequence (P30405 whole entry) above

**Q.** What does the source list for active Akt1?
**A.** kinase assay with recombinant proteins, autoradiography [1]: readily phosphorylated; kinase assay with recombinant proteins, autoradiography [2]: readily phosphorylated
